Experimental data reported in US20260055205A1 (published 2026).

Target: T1, human PSMA (human, UniProt Q04609 44-750, limits assumed)
T1 construct: also called huPSMA; hPSMA
Test: binding screen

T1 sequence (Q04609 44-750 limits assumed): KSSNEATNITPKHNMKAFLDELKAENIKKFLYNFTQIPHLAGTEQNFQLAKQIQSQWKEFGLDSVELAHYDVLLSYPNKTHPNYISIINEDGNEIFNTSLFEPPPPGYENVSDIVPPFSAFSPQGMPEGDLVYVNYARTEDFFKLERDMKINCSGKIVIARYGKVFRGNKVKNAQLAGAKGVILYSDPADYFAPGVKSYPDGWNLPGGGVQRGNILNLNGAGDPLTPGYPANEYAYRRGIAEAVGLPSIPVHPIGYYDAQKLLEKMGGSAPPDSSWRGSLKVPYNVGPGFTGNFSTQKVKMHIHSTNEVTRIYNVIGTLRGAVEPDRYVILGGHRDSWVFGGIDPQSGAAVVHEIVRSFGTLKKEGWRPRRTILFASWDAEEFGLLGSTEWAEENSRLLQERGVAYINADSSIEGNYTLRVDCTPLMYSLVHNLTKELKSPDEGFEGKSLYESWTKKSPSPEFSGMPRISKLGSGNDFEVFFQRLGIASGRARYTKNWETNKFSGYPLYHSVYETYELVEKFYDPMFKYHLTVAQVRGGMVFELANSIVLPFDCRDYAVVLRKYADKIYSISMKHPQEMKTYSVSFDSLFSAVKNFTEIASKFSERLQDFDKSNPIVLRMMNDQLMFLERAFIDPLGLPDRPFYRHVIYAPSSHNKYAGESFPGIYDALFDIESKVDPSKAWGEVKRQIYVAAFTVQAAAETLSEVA

Row | Binder | binding result | Kd [nM]
1 | PSMA.311 (bispecific antibody, V domains shown, TCE with CD3.23; also called AC3713) VH: QVQLVESGGGVVQPGRSLRLSCAASGRTFGIYVMGWFRQAPGKEREFVGAISWSGSNRKVSDSVKGRFTISRDNSKNTLYLQMNSLRAEDTAVDYCAASNKLYGRTWYDFNESDYWGQGTQVTVSS | no binding | –
2 | PSMA.325 (bispecific antibody, V domains shown, TCE with CD3.23; also called AC3727) VH: QVQLVESGGGVVQPGRSLRLSCAASGRTFGIYVMGWFRQAPGKEREFVGAISWSGSNRKVSDSVKGRFTISRDNSKNTLYLQMNSLRAEDTAVRFCAASNKLYGRTWYDFNESDYWGQGTQVTVSS | no binding | –
3 | PSMA.342 (bispecific antibody, V domains shown, TCE with CD3.23; also called AC3744) VH: QVQLVESGGGVVQPGRSLRLSCAASGRTFGIYVMGWFRQAPGKEREFVGAISWSGSNRKVSDSVKGRFTISRDNSKNTLYLQMNSLRAEDTAVSFCAGSNKLYGRTWYDFNESDYWGQGTQVTVSS | no binding | –
4 | PSMA.321 (bispecific antibody, V domains shown, TCE with CD3.23; also called AC3723) VH: QVQLVESGGGVVQPGRSLRLSCAASGRTFGIYVMGWFRQAPGKEREFVGAISWSGSNRKVSDSVKGRFTISRDNSKNTLYLQMNSLRAEDTAVKYCAGSNKLYGRTWYDFNESDYWGQGTQVTVSS | no binding | –
5 | PSMA.338 (bispecific antibody, V domains shown, TCE with CD3.23; also called AC3740) VH: QVQLVESGGGVVQPGRSLRLSCAASGRTFGIYVMGWFRQAPGKEREFVGAISWSGSNRKVSDSVKGRFTISRDNSKNTLYLQMNSLRAEDTAVRFCAGSNKLYGRTWYDFNESDYWGQGTQVTVSS | no binding | –
6 | PSMA.324 (bispecific antibody, V domains shown, TCE with CD3.23; also called AC3726) VH: QVQLVESGGGVVQPGRSLRLSCAASGRTFGIYVMGWFRQAPGKEREFVGAISWSGSNRKVSDSVKGRFTISRDNSKNTLYLQMNSLRAEDTAVAFCAASNKLYGRTWYDFNESDYWGQGTQVTVSS | no binding | –
7 | PSMA.314 (bispecific antibody, V domains shown, TCE with CD3.23; also called AC3716) VH: QVQLVESGGGVVQPGRSLRLSCAASGRTFGIYVMGWFRQAPGKEREFVGAISWSGSNRKVSDSVKGRFTISRDNSKNTLYLQMNSLRAEDTAVYYCAASNKDYGRTWYDFNESDYWGQGTQVTVSS | – | 69.9
8 | PSMA.341 (bispecific antibody, V domains shown, TCE with CD3.23; also called AC3743) VH: QVQLVESGGGVVQPGRSLRLSCAASGRTFGIYVMGWFRQAPGKEREFVGAISWSGSNRKVSDSVKGRFTISRDNSKNTLYLQMNSLRAEDTAVKFCAGSNKLYGRTWYDFNESDYWGQGTQVTVSS | no binding | –
9 | PSMA.318 (bispecific antibody, V domains shown, TCE with CD3.23; also called AC3720) VH: QVQLVESGGGVVQPGRSLRLSCAASGRTFGIYVMGWFRQAPGKEREFVGAISWSGSNRKVSDSVKGRFTISRDNSKNTLYLQMNSLRAEDTAVRYCAGSNKLYGRTWYDFNESDYWGQGTQVTVSS | no binding | –
10 | PSMA.331 (bispecific antibody, V domains shown, TCE with CD3.23; also called AC3733) VH: QVQLVESGGGVVQPGRSLRLSCAASGRTFGIYVMGWFRQAPGKEREFVGAISWSGSNRKVSDSVKGRFTISRDNSKNTLYLQMNSLRAEDTAVYFCGASNKLYGRTWYDFNESDYWGQGTQVTVSS | – | 12.1
11 | PSMA.340 (bispecific antibody, V domains shown, TCE with CD3.23; also called AC3742) VH: QVQLVESGGGVVQPGRSLRLSCAASGRTFGIYVMGWFRQAPGKEREFVGAISWSGSNRKVSDSVKGRFTISRDNSKNTLYLQMNSLRAEDTAVGFCAGSNKLYGRTWYDFNESDYWGQGTQVTVSS | no binding | –
12 | PSMA.315 (bispecific antibody, V domains shown, TCE with CD3.23; also called AC3717) VH: QVQLVESGGGVVQPGRSLRLSCAASGRTFGIYVMGWFRQAPGKEREFVGAISWSGSNRKVSDSVKGRFTISRDNSKNTLYLQMNSLRAEDTAVYYCAASNKEYGRTWYDFNESDYWGQGTQVTVSS | – | 24.2
13 | PSMA.312 (bispecific antibody, V domains shown, TCE with CD3.23; also called AC3714) VH: QVQLVESGGGVVQPGRSLRLSCAASGRTFGIYVMGWFRQAPGKEREFVGAISWSGSNRKVSDSVKGRFTISRDNSKNTLYLQMNSLRAEDTAVYYCGASNKLYGRTWYDFNESDYWGQGTQVTVSS | – | 12
14 | PSMA.335 (bispecific antibody, V domains shown, TCE with CD3.23; also called AC3737) VH: QVQLVESGGGVVQPGRSLRLSCAASGRTFGIYVMGWFRQAPGKEREFVGAISWSGSNRKVSDSVKGRFTISRDNSKNTLYLQMNSLRAEDTAVYFCAASNKEYGRTWYDFNESDYWGQGTQVTVSS | – | 24.8
15 | PSMA.336 (bispecific antibody, V domains shown, TCE with CD3.23; also called AC3738) VH: QVQLVESGGGVVQPGRSLRLSCAASGRTFGIYVMGWFRQAPGKEREFVGAISWSGSNRKVSDSVKGRFTISRDNSKNTLYLQMNSLRAEDTAVYFCAASNKGYGRTWYDFNESDYWGQGTQVTVSS | – | 129
16 | PSMA.316 (bispecific antibody, V domains shown, TCE with CD3.23; also called AC3718) VH: QVQLVESGGGVVQPGRSLRLSCAASGRTFGIYVMGWFRQAPGKEREFVGAISWSGSNRKVSDSVKGRFTISRDNSKNTLYLQMNSLRAEDTAVYYCAASNKGYGRTWYDFNESDYWGQGTQVTVSS | – | 150
17 | PSMA.332 (bispecific antibody, V domains shown, TCE with CD3.23; also called AC3734) VH: QVQLVESGGGVVQPGRSLRLSCAASGRTFGIYVMGWFRQAPGKEREFVGAISWSGSNRKVSDSVKGRFTISRDNSKNTLYLQMNSLRAEDTAVYFCAGSNKLYGRTWYDFNESDYWGQGTQVTVSS | – | 24.1
18 | PSMA.334 (bispecific antibody, V domains shown, TCE with CD3.23; also called AC3736) VH: QVQLVESGGGVVQPGRSLRLSCAASGRTFGIYVMGWFRQAPGKEREFVGAISWSGSNRKVSDSVKGRFTISRDNSKNTLYLQMNSLRAEDTAVYFCAASNKDYGRTWYDFNESDYWGQGTQVTVSS | – | 70.6

The remaining lines, values ahead:

Row | binding result | Kd [nM] | Binder
19 | no binding | – | PSMA.319 (bispecific antibody, V domains shown, TCE with CD3.23; also called AC3721) VH: QVQLVESGGGVVQPGRSLRLSCAASGRTFGIYVMGWFRQAPGKEREFVGAISWSGSNRKVSDSVKGRFTISRDNSKNTLYLQMNSLRAEDTAVNYCAGSNKLYGRTWYDFNESDYWGQGTQVTVSS
20 | no binding | – | PSMA.317 (bispecific antibody, V domains shown, TCE with CD3.23; also called AC3719) VH: QVQLVESGGGVVQPGRSLRLSCAASGRTFGIYVMGWFRQAPGKEREFVGAISWSGSNRKVSDSVKGRFTISRDNSKNTLYLQMNSLRAEDTAVAYCAGSNKLYGRTWYDFNESDYWGQGTQVTVSS
21 | no binding | – | PSMA.326 (bispecific antibody, V domains shown, TCE with CD3.23; also called AC3728) VH: QVQLVESGGGVVQPGRSLRLSCAASGRTFGIYVMGWFRQAPGKEREFVGAISWSGSNRKVSDSVKGRFTISRDNSKNTLYLQMNSLRAEDTAVNFCAASNKLYGRTWYDFNESDYWGQGTQVTVSS
22 | no binding | – | PSMA.328 (bispecific antibody, V domains shown, TCE with CD3.23; also called AC3730) VH: QVQLVESGGGVVQPGRSLRLSCAASGRTFGIYVMGWFRQAPGKEREFVGAISWSGSNRKVSDSVKGRFTISRDNSKNTLYLQMNSLRAEDTAVGFCAASNKLYGRTWYDFNESDYWGQGTQVTVSS
23 | no binding | – | PSMA.320 (bispecific antibody, V domains shown, TCE with CD3.23; also called AC3722) VH: QVQLVESGGGVVQPGRSLRLSCAASGRTFGIYVMGWFRQAPGKEREFVGAISWSGSNRKVSDSVKGRFTISRDNSKNTLYLQMNSLRAEDTAVGYCAGSNKLYGRTWYDFNESDYWGQGTQVTVSS
24 | no binding | – | PSMA.323 (bispecific antibody, V domains shown, TCE with CD3.23; also called AC3725) VH: QVQLVESGGGVVQPGRSLRLSCAASGRTFGIYVMGWFRQAPGKEREFVGAISWSGSNRKVSDSVKGRFTISRDNSKNTLYLQMNSLRAEDTAVTYCAGSNKLYGRTWYDFNESDYWGQGTQVTVSS
25 | no binding | – | PSMA.329 (bispecific antibody, V domains shown, TCE with CD3.23; also called AC3731) VH: QVQLVESGGGVVQPGRSLRLSCAASGRTFGIYVMGWFRQAPGKEREFVGAISWSGSNRKVSDSVKGRFTISRDNSKNTLYLQMNSLRAEDTAVKFCAASNKLYGRTWYDFNESDYWGQGTQVTVSS
26 | no binding | – | PSMA.322 (bispecific antibody, V domains shown, TCE with CD3.23; also called AC3724) VH: QVQLVESGGGVVQPGRSLRLSCAASGRTFGIYVMGWFRQAPGKEREFVGAISWSGSNRKVSDSVKGRFTISRDNSKNTLYLQMNSLRAEDTAVSYCAGSNKLYGRTWYDFNESDYWGQGTQVTVSS
27 | no binding | – | PSMA.330 (bispecific antibody, V domains shown, TCE with CD3.23; also called AC3732) VH: QVQLVESGGGVVQPGRSLRLSCAASGRTFGIYVMGWFRQAPGKEREFVGAISWSGSNRKVSDSVKGRFTISRDNSKNTLYLQMNSLRAEDTAVSFCAASNKLYGRTWYDFNESDYWGQGTQVTVSS
28 | no binding | – | PSMA.327 (bispecific antibody, V domains shown, TCE with CD3.23; also called AC3729) VH: QVQLVESGGGVVQPGRSLRLSCAASGRTFGIYVMGWFRQAPGKEREFVGAISWSGSNRKVSDSVKGRFTISRDNSKNTLYLQMNSLRAEDTAVDFCAASNKLYGRTWYDFNESDYWGQGTQVTVSS
29 | no binding | – | PSMA.337 (bispecific antibody, V domains shown, TCE with CD3.23; also called AC3739) VH: QVQLVESGGGVVQPGRSLRLSCAASGRTFGIYVMGWFRQAPGKEREFVGAISWSGSNRKVSDSVKGRFTISRDNSKNTLYLQMNSLRAEDTAVAFCAGSNKLYGRTWYDFNESDYWGQGTQVTVSS
30 | no binding | – | PSMA.313 (bispecific antibody, V domains shown, TCE with CD3.23; also called AC3715) VH: QVQLVESGGGVVQPGRSLRLSCAASGRTFGIYVMGWFRQAPGKEREFVGAISWSGSNRKVSDSVKGRFTISRDNSKNTLYLQMNSLRAEDTAVYYCAASNKRYGRTWYDFNESDYWGQGTQVTVSS
31 | no binding | – | PSMA.339 (bispecific antibody, V domains shown, TCE with CD3.23; also called AC3741) VH: QVQLVESGGGVVQPGRSLRLSCAASGRTFGIYVMGWFRQAPGKEREFVGAISWSGSNRKVSDSVKGRFTISRDNSKNTLYLQMNSLRAEDTAVNFCAGSNKLYGRTWYDFNESDYWGQGTQVTVSS
32 | no binding | – | PSMA.333 (bispecific antibody, V domains shown, TCE with CD3.23; also called AC3735) VH: QVQLVESGGGVVQPGRSLRLSCAASGRTFGIYVMGWFRQAPGKEREFVGAISWSGSNRKVSDSVKGRFTISRDNSKNTLYLQMNSLRAEDTAVYFCAASNKRYGRTWYDFNESDYWGQGTQVTVSS
